Assay [1] concerns the target nesprin-1α fragment SLR2-7ΔAD (SLR2-7 with the adaptive domain deleted) (human). The experiment in a line: dynamic light scattering.
For assay [2], the target named is nesprin-1α fragment SLR2-7 (full-length nesprin-1α minus the transmembrane domain) (human). The experiment in a line: dynamic light scattering.

The values below come from PMC2885798.

In assay [1], “nesprin-1α fragment SLR2-7ΔAD (SLR2-7 with the adaptive domain deleted) (domain or fragment)” came in with a stoichiometry N of 2.
“nesprin-1α fragment SLR2-7 (full-length nesprin-1α minus the transmembrane domain) (domain or fragment)” yielded a stoichiometry N in assay [2] of 2.
